Measurements taken from patent US20240376224A1 (University of California, published 2024).

T1: c-CDCP1-Fc (Cut 2) (human, UniProt Q9H5V8 30-368; Q9H5V8 369-667)
T1 construct: Co-transfection of NTF and CTF-Fc plasmids; not shown: Fc domain
T1 sequence 1: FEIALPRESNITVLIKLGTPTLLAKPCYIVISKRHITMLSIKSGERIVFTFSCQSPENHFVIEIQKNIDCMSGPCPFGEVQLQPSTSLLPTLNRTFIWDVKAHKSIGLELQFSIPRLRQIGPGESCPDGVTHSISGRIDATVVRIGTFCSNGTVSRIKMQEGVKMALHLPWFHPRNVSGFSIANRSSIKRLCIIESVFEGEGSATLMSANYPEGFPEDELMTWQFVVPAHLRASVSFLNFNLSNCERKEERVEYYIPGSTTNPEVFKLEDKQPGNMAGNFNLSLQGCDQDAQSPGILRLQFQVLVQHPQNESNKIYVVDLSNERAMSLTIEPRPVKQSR
T1 sequence 2: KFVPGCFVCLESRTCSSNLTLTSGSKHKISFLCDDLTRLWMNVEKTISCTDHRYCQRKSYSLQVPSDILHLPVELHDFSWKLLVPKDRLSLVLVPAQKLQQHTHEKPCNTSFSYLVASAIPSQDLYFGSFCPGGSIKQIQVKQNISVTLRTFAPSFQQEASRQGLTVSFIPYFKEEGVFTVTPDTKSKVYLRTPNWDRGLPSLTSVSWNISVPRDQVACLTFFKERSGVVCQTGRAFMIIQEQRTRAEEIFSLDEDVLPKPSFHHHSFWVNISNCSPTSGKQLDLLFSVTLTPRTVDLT

T2: c-CDCP1-Fc (Cut 1) (human, UniProt Q9H5V8 30-365; Q9H5V8 366-667)
T2 construct: Co-transfection of NTF and CTF-Fc plasmids; not shown: Fc domain
T2 sequence 1: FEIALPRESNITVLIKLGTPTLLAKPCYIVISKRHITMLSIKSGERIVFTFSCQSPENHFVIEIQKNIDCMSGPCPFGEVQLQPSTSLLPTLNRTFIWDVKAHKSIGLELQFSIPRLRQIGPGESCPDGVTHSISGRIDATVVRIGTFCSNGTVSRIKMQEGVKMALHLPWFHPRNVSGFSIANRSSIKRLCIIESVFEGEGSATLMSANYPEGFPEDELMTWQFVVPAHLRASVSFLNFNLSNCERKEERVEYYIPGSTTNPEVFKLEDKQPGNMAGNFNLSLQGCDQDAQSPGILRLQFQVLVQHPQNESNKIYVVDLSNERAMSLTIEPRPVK
T2 sequence 2: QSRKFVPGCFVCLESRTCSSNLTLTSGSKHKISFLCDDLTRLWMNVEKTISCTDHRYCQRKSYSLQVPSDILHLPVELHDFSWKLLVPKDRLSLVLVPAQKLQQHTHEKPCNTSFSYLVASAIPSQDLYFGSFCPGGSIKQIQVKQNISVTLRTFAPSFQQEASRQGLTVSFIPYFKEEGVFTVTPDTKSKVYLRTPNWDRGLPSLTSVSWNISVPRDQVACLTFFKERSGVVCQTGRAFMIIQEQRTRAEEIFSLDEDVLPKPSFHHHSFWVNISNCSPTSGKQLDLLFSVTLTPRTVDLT

T3: c-CDCP1-Fc (Cut 3) (human, UniProt Q9H5V8 30-369; Q9H5V8 370-667)
T3 construct: Co-transfection of NTF and CTF-Fc plasmids; not shown: Fc domain
T3 sequence 1: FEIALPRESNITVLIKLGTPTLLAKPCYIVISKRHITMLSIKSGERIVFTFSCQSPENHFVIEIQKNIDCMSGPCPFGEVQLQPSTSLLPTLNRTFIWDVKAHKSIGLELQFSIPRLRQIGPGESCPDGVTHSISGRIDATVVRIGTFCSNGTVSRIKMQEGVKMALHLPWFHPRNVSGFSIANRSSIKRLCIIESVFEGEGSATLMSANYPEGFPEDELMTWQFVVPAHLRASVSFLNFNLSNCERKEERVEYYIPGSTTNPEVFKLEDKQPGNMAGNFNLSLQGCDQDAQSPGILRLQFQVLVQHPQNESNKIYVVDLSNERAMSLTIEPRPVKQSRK
T3 sequence 2: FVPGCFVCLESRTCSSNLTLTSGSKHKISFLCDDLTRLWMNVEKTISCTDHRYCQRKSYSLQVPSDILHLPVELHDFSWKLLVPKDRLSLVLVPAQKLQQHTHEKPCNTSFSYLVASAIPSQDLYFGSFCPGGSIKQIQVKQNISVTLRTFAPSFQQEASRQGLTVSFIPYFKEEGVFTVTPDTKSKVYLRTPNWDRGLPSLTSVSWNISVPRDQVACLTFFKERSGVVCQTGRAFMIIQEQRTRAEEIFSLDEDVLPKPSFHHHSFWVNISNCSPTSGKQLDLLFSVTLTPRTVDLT

T4: NTF immobilized via the N-termini (human, UniProt Q9H5V8 30-367, limits assumed)
T4 sequence: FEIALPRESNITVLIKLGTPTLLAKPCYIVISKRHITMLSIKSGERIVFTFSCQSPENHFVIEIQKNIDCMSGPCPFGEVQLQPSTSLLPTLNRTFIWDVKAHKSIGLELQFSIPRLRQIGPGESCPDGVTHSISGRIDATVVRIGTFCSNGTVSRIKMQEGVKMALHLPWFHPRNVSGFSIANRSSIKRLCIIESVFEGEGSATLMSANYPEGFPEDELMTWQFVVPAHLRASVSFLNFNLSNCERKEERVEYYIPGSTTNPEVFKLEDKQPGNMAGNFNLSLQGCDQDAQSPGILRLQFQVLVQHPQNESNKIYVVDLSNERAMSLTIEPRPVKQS

T5: c-CDCP1 (Cut 3) ectodomain (human, UniProt Q9H5V8 30-369; Q9H5V8 370-667)
T5 construct: Made by co-transfection of NTF and CTF plasmids, purified by Ni-NTA (tag not described); also called cCDCP1 ECD cut 3
T5 sequence 1: T3 sequence 1
T5 sequence 2: T3 sequence 2

T6: c-CDCP1 (Cut 3) on HEK293T cells (human, UniProt Q9H5V8 30-369; Q9H5V8 370-836)
T6 construct: T2A remnants not described; also called HEK293T c-CDCP1
T6 sequence 1: T3 sequence 1
T6 sequence 2: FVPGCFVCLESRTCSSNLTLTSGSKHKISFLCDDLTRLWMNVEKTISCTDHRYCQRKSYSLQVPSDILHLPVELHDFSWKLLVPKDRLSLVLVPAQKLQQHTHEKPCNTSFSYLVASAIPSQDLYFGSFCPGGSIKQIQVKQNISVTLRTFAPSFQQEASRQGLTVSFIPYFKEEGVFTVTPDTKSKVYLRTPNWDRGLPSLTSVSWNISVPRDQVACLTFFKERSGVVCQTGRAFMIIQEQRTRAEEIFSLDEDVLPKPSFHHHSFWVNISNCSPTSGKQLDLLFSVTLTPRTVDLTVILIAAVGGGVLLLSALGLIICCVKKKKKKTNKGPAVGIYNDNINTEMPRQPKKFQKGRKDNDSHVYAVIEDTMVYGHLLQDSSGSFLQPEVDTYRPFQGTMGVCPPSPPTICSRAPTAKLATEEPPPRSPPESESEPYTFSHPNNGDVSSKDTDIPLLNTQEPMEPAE

T7: full-length (uncleaved) human CDCP1 on cells (human, UniProt Q9H5V8 30-836)
T7 construct: HPAC cells express mostly uncleaved CDCP1 (endogenous); also called fl-CDCP1; uncleaved CDCP1 on HPAC cells
T7 sequence: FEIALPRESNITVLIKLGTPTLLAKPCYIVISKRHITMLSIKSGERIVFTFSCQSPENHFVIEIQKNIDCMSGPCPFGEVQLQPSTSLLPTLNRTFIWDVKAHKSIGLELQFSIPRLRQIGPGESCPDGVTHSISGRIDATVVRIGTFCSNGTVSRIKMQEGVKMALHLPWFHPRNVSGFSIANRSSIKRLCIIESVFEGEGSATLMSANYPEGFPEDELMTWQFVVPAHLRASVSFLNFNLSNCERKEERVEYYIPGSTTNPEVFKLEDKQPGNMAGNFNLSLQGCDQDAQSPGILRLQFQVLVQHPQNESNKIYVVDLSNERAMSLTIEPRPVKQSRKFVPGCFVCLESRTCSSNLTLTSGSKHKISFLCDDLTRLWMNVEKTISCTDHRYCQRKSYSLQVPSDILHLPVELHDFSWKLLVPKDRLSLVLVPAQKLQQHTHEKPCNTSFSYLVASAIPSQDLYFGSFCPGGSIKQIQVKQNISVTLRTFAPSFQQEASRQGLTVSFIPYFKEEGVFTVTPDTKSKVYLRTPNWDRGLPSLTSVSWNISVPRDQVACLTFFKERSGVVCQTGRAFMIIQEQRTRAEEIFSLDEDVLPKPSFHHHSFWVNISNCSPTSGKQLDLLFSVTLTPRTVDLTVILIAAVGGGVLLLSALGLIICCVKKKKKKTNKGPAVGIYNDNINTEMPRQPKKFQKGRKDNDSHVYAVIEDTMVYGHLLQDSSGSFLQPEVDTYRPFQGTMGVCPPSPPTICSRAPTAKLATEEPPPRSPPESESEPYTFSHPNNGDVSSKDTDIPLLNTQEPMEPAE

B1: CL03 Fab (Fab, V domains shown)
VH: EVQLVESGGGLVQPGGSLRLSCAASGFNFSSYSIHWVRQAPGKGLEWVASIYPYSGSTYYADSVKGRFTISADTSKNTAYLQMNSLRAEDTAVYYCARQSHSYYSHTWWVSYGMDYWGQGTLVTVSS
VL: DIQMTQSPSSLSASVGDRVTITCRASQSVSSAVAWYQQKPGKAPKLLIYSASSLYSGVPSRFSGSRSGTDFTLTISSLQPEDFATYYCQQSGQRPITFGQGTKVEIKR
notes: also called Fab CL03
B2: IgG 4A06 (antibody, V domains shown)
VH: EVQLVESGGGLVQPGGSLRLSCAASGFNLSYYYIHWVRQAPGKGLEWVASIYSSSSYTSYADSVKGRFTISADTSKNTAYLQMNSLRAEDTAVYYCARAYYGFDYWGQGTLVTVSS
VL: DIQMTQSPSSLSASVGDRVTITCRASQSVSSAVAWYQQKPGKAPKLLIYSASSLYSGVPSRFSGSRSGTDFTLTISSLQPEDFATYYCQQSYYYYPITFGQGTKVEIK

What was measured:
c-CDCP1-Fc (Cut 2) = target: T1, c-CDCP1-Fc (Cut 2); assay: BLI (Octet), table of in vitro binding affinities
Experimental: (§1) BLI experiments were performed using an Octet RED384 instrument (ForteBio). Biotinylated proteins were immobilized on a streptavidin (SA) biosensor and His-tagged proteins were immobilized on a Ni-NTA biosensor. Different concentrations of analyte in PBS pH 7.4+0.05% Tween-20+0.2% BSA (PBSTB) were used as analyte. Affinities (KDS) were calculated from a global fit (1:1) of the data using the Octet RED384 software.

c-CDCP1-Fc (Cut 1) = target: T2, c-CDCP1-Fc (Cut 1); assay: BLI (Octet), table of in vitro binding affinities
Experimental: as §1

c-CDCP1-Fc (Cut 3) = target: T3, c-CDCP1-Fc (Cut 3); assay: BLI (Octet), table of in vitro binding affinities
Experimental: as §1

[1] = target: T4, NTF immobilized via the N-termini; assay: multipoint BLI (Octet), His-NTF on a Ni-NTA biosensor, CL03 Fab at 100, 50, 25, 12.5, 6.25 nM
Experimental: as §1
(§2) To investigate the binding mechanism of CL03, the binding of CL03 to different CDCP1 antigens was measured by BLI using standard methods. In instances when the C-termini of the NTF was immobilized either via an Fc domain or directly to the biosensor surface, there was no binding of CL03 (FIG. 6A-FIG. 6B). In instances when the NTF was immobilized via the N-termini, CL03 bound NTF at similar affinity to the full c-CDCP1 antigen (FIG. 6B-FIG. 6C). Additionally, it was observed that CL03 recognized an uncleaved CDCP1 variant where a 16-amino acid linker was inserted between CUB1 and CUB2 at the R368/K369 proteolysis site (FIG. 6D).

[2] = target: T5, c-CDCP1 (Cut 3) ectodomain; assay: multipoint BLI (Octet), c-CDCP1 (Cut 3) held by its His-tag on a Ni-NTA biosensor, CL03 Fab at 100, 50, 25, 12.5, 6.25 nM
Experimental: as §1, §2

[3] = target: T6, c-CDCP1 (Cut 3) on HEK293T cells; assay: flow cytometry, dose response on HEK293T-cCDCP1 cells (CDCP1 WT)
[4] = target: T7, full-length (uncleaved) human CDCP1 on …; assay: flow cytometry, dose response on HEK293T-flCDCP1 cells (CDCP1 WT)

Binder | Kd (c-CDCP1-Fc (Cut 2)) [nM] | Kd (c-CDCP1-Fc (Cut 1)) [nM] | koff (c-CDCP1-Fc (Cut 1)) [s⁻¹] | kon (c-CDCP1-Fc (Cut 1)) [M⁻¹ s⁻¹] | Kd (c-CDCP1-Fc (Cut 3)) [nM] | Kd [1] [nM] | Kd [2] [nM] | EC50 (read off the curve) [3] [nM] | EC50 (read off the curve) [4] [nM]
B1 | 3.91 | 2.26 | 0.000648 | 288000 | 3.59 | 10.5 | 9.74 | – | –
B2 | – | – | – | – | – | – | – | ~0.4 | ~1
